Tests used:
[1] = substrate: O=C1/C(=C/c2ccc(O)c(O)c2)Oc2cc(O)ccc21; test: HPLC glucosylation assay, Lineweaver-Burk; assay type: biochemical, Ornithogalum saundersiae; settings: 1 mM UDP-Glc fixed; sulfuretin 0-1 mM
Description: (§1) HPLC glucosylation assay, Lineweaver-Burk on OsUGT1

[2] = substrate: O=c1cc(-c2ccccc2)oc2c(O)c(O)ccc12; test: HPLC glucosylation assay, Lineweaver-Burk; assay type: biochemical, Ornithogalum saundersiae; settings: 1 mM UDP-Glc fixed; 7,8-dihydroxyflavone 0-1 mM
Description: as §1

B1: OsUGT1 (Ornithogalum saundersiae) (protein)
chain: MEGKKQHVVLFPFMGQGHITPFLLLAELIHEYYPDYTITLVNTPLNIRNLQSSLPPGSKINLKSLPFDASSHGLPPDTENTKAIPFHLFINLFRASETLEPAFERLIAGITEEDGIPPLCIIADNFFSWTLHIARKFGVFHSTFLTSGAYGSALLFSLWKYLPHRNAYSDEFSLPDFPEIRLHHTQLSNILVVADGGDAWSVLLRRLNELCTRSDAVLVNTVKEFEARGLSMLREQLQGPIFPVGPLLCTSASHSMGMDLSDWLDSQPSASVLYVSFGSQNTIRASQMLKLAMALEATSRPFIWVIRPPVGFDVRVQFKSEWLPEGFEDRMRGTKQGFIVHQWAPQVEILSHPSTGAFLSHCGWNSVLESLVHGVPIIGWPLSAEQFYNSKFLMEEVGVCVEAARGNRESSEVKKEEVERAIEIVMDNEEIRRKAKETARVLKSALKEEENNTNVGSSLRGLKEFFQTALSKRVVT
Km [1]: 159 ± 11 µM
Vmax [1]: 3.47 µM/min
Km [2]: 713 ± 69 µM
Vmax [2]: 28.3 µM/min

Source: article PMC6071076, “Transcriptome-Wide Identification of an Aurone Glycosyltransferase with Glycosidase Activity from Ornithogalum saundersiae” (Genes, 2018)
